Read-outs that look alike come from different tables or passages of the source. Where no end group is shown, it is not given here.
B1: TCE-20 (anti-CD3 scFv S110A; anti-TROP2 wt) (bispecific antibody)
light: DIQLTQSPSSLSASVGDRVSITCKASQDVSIAVAWYQQKPGKAPKLLIYSASYRYTGVPDRFSGSGSGTDFTLTISSLQPEDFAVYYCQQHYITPLTFGAGTKVEIKRTVAAPSVFIFPPSDEQLKSGTASVVCLLNNFYPREAKVQWKVDNALQSGNSQESVTEQDSKDSTYSLSSTLTLSKADYEKHKVYACEVTHQGLSSPVTKSFNRGEC
heavy: not shown
notes: scFv on the Fab heavy chain; also called TCE-20 (S110A)
B2: TCE-38 (anti-CD3 scFv F240A; anti-TROP2 F108A) (bispecific antibody)
light: DIQLTQSPSSLSASVGDRVSITCKASQDVSIAVAWYQQKPGKAPKLLIYSASYRYTGVPDRFSGSGSGTDFTLTISSLQPEDFAVYYCQQHYITPLTFGAGTKVEIKRTVAAPSVFIFPPSDEQLKSGTASVVCLLNNFYPREAKVQWKVDNALQSGNSQESVTEQDSKDSTYSLSSTLTLSKADYEKHKVYACEVTHQGLSSPVTKSFNRGEC
heavy: not shown
notes: scFv on the Fab heavy chain
B3: Peptide-73 (peptide)
peptide: VYCGPEFDESVGCA
modifications: cysteine pairing not given here; also: biotinylated, site not given here
notes: mask peptide for the CD3 scFv

Experiments:
Peptide-71 = target: T1, Peptide-71 (cysteine pairing not given here; also: biotinylated, site not given here); test: ELISA, TCE on captured biotin-peptide
T1 construct: mask peptide for the CD3 scFv
T1 peptide: VDCGPDGDESILCY

Peptide-66 = target: T2, Peptide-66 (cysteine pairing not given here; also: biotinylated, site not given here); test: ELISA, TCE on captured biotin-peptide
T2 construct: mask peptide for the CD3 scFv
T2 peptide: GSQCLGPEWEVCPY

Peptide-68 = target: T3, Peptide-68 (cysteine pairing not given here; also: biotinylated, site not given here); test: ELISA, TCE on captured biotin-peptide
T3 construct: mask peptide for the CD3 scFv
T3 peptide: DWCWYSPDNDGLCD

Peptide-72 = target: T4, Peptide-72 (cysteine pairing not given here; also: biotinylated, site not given here); test: ELISA, TCE on captured biotin-peptide
T4 construct: mask peptide for the CD3 scFv
T4 peptide: AYCGPEFDESVGCM

Peptide-67 = target: T5, Peptide-67 (cysteine pairing not given here; also: biotinylated, site not given here); test: ELISA, TCE on captured biotin-peptide
T5 construct: mask peptide for the CD3 scFv
T5 peptide: VYCGPEFDESVGCM

Peptide-75 = target: T6, Peptide-75 (cysteine pairing not given here; also: biotinylated, site not given here); test: ELISA, TCE on captured biotin-peptide
T6 construct: mask peptide for the CD3 scFv
T6 peptide: GSACLGPEWEVCPY

Peptide-73 [1] = target: B3; test: ELISA, TCE on captured biotin-peptide
Peptide-69 = target: T7, Peptide-69 (cysteine pairing not given here; also: biotinylated, site not given here); test: ELISA, TCE on captured biotin-peptide
T7 construct: mask peptide for the CD3 scFv
T7 peptide: SECLVDLQSDPCYW

Peptide-74 = target: T8, Peptide-74 (cysteine pairing not given here; also: biotinylated, site not given here); test: ELISA, TCE on captured biotin-peptide
T8 construct: mask peptide for the CD3 scFv
T8 peptide: ASQCLGPEWEVCPY

Peptide-77 = target: T9, Peptide-77 (cysteine pairing not given here; also: biotinylated, site not given here); test: ELISA, TCE on captured biotin-peptide
T9 construct: mask peptide for the CD3 scFv
T9 peptide: YLCGPDTDETLACY

Peptide-73 [2] = target: B3; test: ELISA, TCE on captured biotin-peptide
Peptide-76 = target: T10, Peptide-76 (cysteine pairing not given here; also: biotinylated, site not given here); test: ELISA, TCE on captured biotin-peptide
T10 construct: mask peptide for the CD3 scFv
T10 peptide: YLCGPDADETLACY

Peptide-70 = target: T11, Peptide-70 (cysteine pairing not given here; also: biotinylated, site not given here); test: ELISA, TCE on captured biotin-peptide
T11 construct: mask peptide for the CD3 scFv
T11 peptide: YLCGPDGDETLACY

[3] = target: T12, CD3 (biotinylated CD3 antigen) (human, UniProt P07766 23-126, limits assumed, biotinylated (site not stated)); test: ELISA, TCE on captured biotin-CD3
T12 construct: also called CD3ε; human CD3

[4] = target: T13, TCE-10 (anti-CD3 scFv R100A; anti-TROP2 wt); test: competition ELISA, TCE on captured CD3; Table 40 peptide panel (FIGS. 91-102), limit >100 µM
T13 construct: scFv on the Fab heavy chain; also called TCE-10 (R100A)

[5] = target: B1; test: as above
[6] = target: T14, TCE-37 (anti-CD3 scFv F104A; anti-TROP2 F108A); test: competition ELISA, TCE on captured CD3
T14 construct: scFv on the Fab heavy chain

[7] = target: T15, TCE-7 (anti-CD3 scFv wt; anti-TROP2 F108A); test: competition ELISA, TCE on captured CD3
T15 construct: scFv on the Fab heavy chain

[8] = target: T16, TCE-39 (anti-CD3 scFv P41S, A49G, N87S, L150F, T151S, G163R, P175A, K181T, T200V, A202D, L208I, G211N, L217I, …); test: competition ELISA, TCE on captured CD3
T16 construct: scFv on the Fab heavy chain

[9] = target: B2; test: competition ELISA, TCE on captured CD3
[10] = target: T17, TCE-36 (anti-CD3 scFv H101A; anti-TROP2 F108A); test: competition ELISA, TCE on captured CD3
T17 construct: scFv on the Fab heavy chain

[11] = target: T18, TCE-13 (anti-CD3 scFv N103A; anti-TROP2 wt); test: competition ELISA, TCE on captured CD3
T18 construct: scFv on the Fab heavy chain; also called TCE-13 (N103A)

[12] = target: T19, TCE-14 (anti-CD3 scFv F104A; anti-TROP2 wt); test: competition ELISA, TCE on captured CD3
T19 construct: scFv on the Fab heavy chain; also called TCE-14 (F104A)

[13] = target: T20, TCE-11 (anti-CD3 scFv H101A; anti-TROP2 wt); test: competition ELISA, TCE on captured CD3
T20 construct: scFv on the Fab heavy chain; also called TCE-11 (H101A)

[14] = target: T21, TCE-22 (anti-CD3 scFv W112A; anti-TROP2 wt); test: competition ELISA, TCE on captured CD3; Table 41 run, peptide series with ceiling >100 µM
T21 construct: scFv on the Fab heavy chain; also called TCE-22 (W112A)

[15] = target: T22, TCE-31 (anti-CD3 scFv W238A; anti-TROP2 wt); test: as above
T22 construct: scFv on the Fab heavy chain; also called TCE-31 (W238A)

[16] = target: T13, TCE-10 (anti-CD3 scFv R100A; anti-TROP2 …); test: competition ELISA (IC50 above limit); Table 42 Peptide-73 series (FIGS. 103A-103C), limit >3 µM
[17] = target: B1; test: as above
[18] = target: T23, TCE-33 (anti-CD3 scFv F240A; anti-TROP2 wt); test: competition ELISA, TCE on captured CD3
T23 construct: scFv on the Fab heavy chain; also called TCE-33 (F240A)

[19] = target: T24, TCE-27 (anti-CD3 scFv Y234A; anti-TROP2 wt); test: competition ELISA, TCE on captured CD3
T24 construct: scFv on the Fab heavy chain

[20] = target: T25, TCE-25 (anti-CD3 scFv L232A; anti-TROP2 wt); test: competition ELISA, TCE on captured CD3
T25 construct: scFv on the Fab heavy chain

[21] = target: T18, TCE-13 (anti-CD3 scFv N103A; anti-TROP2 …); test: competition ELISA, TCE on captured CD3; remark: listed apart in the source
[22] = target: T26, TCE-28 (anti-CD3 scFv S235A; anti-TROP2 wt); test: competition ELISA, TCE on captured CD3
T26 construct: scFv on the Fab heavy chain

[23] = target: T27, TCE-32 (anti-CD3 scFv V239A; anti-TROP2 wt); test: competition ELISA, TCE on captured CD3
T27 construct: scFv on the Fab heavy chain

[24] = target: T28, TCE-17 (anti-CD3 scFv S107A; anti-TROP2 wt); test: competition ELISA, TCE on captured CD3
T28 construct: scFv on the Fab heavy chain

[25] = target: T19, TCE-14 (anti-CD3 scFv F104A; anti-TROP2 …); test: competition ELISA, TCE on captured CD3; remark: listed apart in the source
[26] = target: T13, TCE-10 (anti-CD3 scFv R100A; anti-TROP2 …); test: competition ELISA, TCE on captured CD3
[27] = target: B1; test: competition ELISA, TCE on captured CD3
[28] = target: T29, TCE-15 (anti-CD3 scFv G105A; anti-TROP2 wt); test: competition ELISA, TCE on captured CD3
T29 construct: scFv on the Fab heavy chain

[29] = target: T30, TCE-24 (anti-CD3 scFv V231A; anti-TROP2 wt); test: competition ELISA, TCE on captured CD3
T30 construct: scFv on the Fab heavy chain

[30] = target: T31, TCE-29 (anti-CD3 scFv N236A; anti-TROP2 wt); test: competition ELISA, TCE on captured CD3
T31 construct: scFv on the Fab heavy chain

[31] = target: T32, TCE-30 (anti-CD3 scFv R237A; anti-TROP2 wt); test: competition ELISA, TCE on captured CD3
T32 construct: scFv on the Fab heavy chain

[32] = target: T33, TCE-19 (anti-CD3 scFv I109A; anti-TROP2 wt); test: competition ELISA, TCE on captured CD3
T33 construct: scFv on the Fab heavy chain

[33] = target: T34, TCE-12 (anti-CD3 scFv G102A; anti-TROP2 wt); test: competition ELISA, TCE on captured CD3
T34 construct: scFv on the Fab heavy chain

[34] = target: T23, TCE-33 (anti-CD3 scFv F240A; anti-TROP2 …); test: competition ELISA, TCE on captured CD3; remark: listed apart in the source
[35] = target: T35, TCE-1 (anti-CD3 scFv wt; anti-TROP2 Fab wt); test: competition ELISA, TCE on captured CD3
T35 construct: anti-CD3 scFv fused to the N-terminus of the anti-TROP2 Fab heavy chain; also called TCE-1 (wt)

[36] = target: T36, TCE-9 (anti-CD3 scFv V99A; anti-TROP2 wt); test: competition ELISA, TCE on captured CD3
T36 construct: scFv on the Fab heavy chain

[37] = target: T20, TCE-11 (anti-CD3 scFv H101A; anti-TROP2 …); test: competition ELISA, TCE on captured CD3; remark: listed apart in the source
[38] = target: T37, TCE-16 (anti-CD3 scFv N106A; anti-TROP2 wt); test: competition ELISA, TCE on captured CD3
T37 construct: scFv on the Fab heavy chain

[39] = target: T38, TCE-18 (anti-CD3 scFv Y108A; anti-TROP2 wt); test: competition ELISA, TCE on captured CD3
T38 construct: scFv on the Fab heavy chain

B1
EC50 (Peptide-71): 1.92 nM
EC50 (Peptide-66): 3.65 nM
EC50 (Peptide-68): 0.16 nM
EC50 (Peptide-72): 0.76 nM
EC50 (Peptide-67): 0.66 nM
EC50 (Peptide-75): 3.82 nM
EC50 (Peptide-73 [1]): 0.83 nM
EC50 (Peptide-69): 0.95 nM
EC50 (Peptide-74): 3.46 nM

B2
EC50 (Peptide-77): 336 nM
EC50 (Peptide-73 [2]): 8.87 nM
EC50 (Peptide-76): 222 nM
EC50 (Peptide-70): 0.62 nM
EC50 [3]: 0.95 nM

B3
IC50 [4]: 16800 nM
IC50 [5]: 2200 nM
IC50 [6]: 10 nM
IC50 [7]: 60 nM
IC50 [8]: 40 nM
IC50 [9]: 4620 nM
IC50 [10]: 1630 nM
IC50 [11]: 4070 nM
IC50 [12]: 200 nM
IC50 [13]: 2930 nM
IC50 [14]: 39100 nM
IC50 [15]: 25900 nM
IC50 [16]: 3000 nM
IC50 [17]: 3000 nM
IC50 [18]: 3020 nM
IC50 [19]: 620 nM
IC50 [20]: 650 nM
IC50 [21]: 820 nM
IC50 [22]: 100 nM
IC50 [23]: 60 nM
IC50 [24]: 100 nM
IC50 [25]: 70 nM
IC50 [26]: > 3000 nM
IC50 [27]: > 3000 nM
IC50 [28]: 310 nM
IC50 [29]: 230 nM
IC50 [30]: 230 nM
IC50 [31]: 140 nM
IC50 [32]: 420 nM
IC50 [33]: 230 nM
IC50 [34]: 1900 nM
IC50 [35]: 140 nM
IC50 [36]: 160 nM
IC50 [37]: 1220 nM
IC50 [38]: 50 nM
IC50 [39]: 110 nM

— patent US20230357429A1 (JANUX THERAPEUTICS, published 2023)
